Values of other authors as cited in publication PMC1617126.

Target: protective antigen (PA) (Bacillus anthracis) (UniProt P13423)

For ANTXR2 I domain (from UniProt P58335), the Kd is given as 960 nM.
